Experimental data published in patent US20200347144A1 (SHANGHAI HYAMAB BIOTECH, published 2020).

B1: 119B6G5 (antibody, V domains shown)
VH: EVQLLESGGGLVQPGGSLRLSCAASGFTFSNYAMSWVRQGPGKGLEWVSTIIGSGDSTYYTDSVKGRFTISRDNSKNTLFLQMNSLRAEDTAVYYCARDKSGWYYFDYWGQGTLVTVSS
VL: DIQMTQSPSTLSASVGDRVTITCRASQSISNWLAWYQQKPGKAPKLLIYKASSLESGVPSRFSGSGSGTEFTLTISSLQPDDFATYYCQQYNDYFPITFGQGTRLEIK
B2: 170D7F2 (antibody, V domains shown)
VH: QVQLVQSGAEVKKPGASVKVSCKASGYTFTSYDINWVRQATGQGLEWMGWMNPNSGNTGYAQKFQGRVTMTRNTSISTAYMELSSLRSEDTAVYYCARETGPFDYWGQGTLVTVSS
VL: DIQMTQSPSSLSASVGDRVTITCRASQRINNYLNWYQQKPGKAPKLLIYGASSLQSGVPSRFSGSGSGTDFTLTISSLQPEDFATYYCQQSYSTPFTFGPGTKVDIK
B3: 172E3E3 (antibody, V domains shown)
VH: QVQLQESGPGLVKPSGTLSLTCAVSGGSISSSNWWSWVRQPPGKGLEWIGEIYHSGSTNYNPSLKSRVTISVDKSKNQLSLNLSSVTAADTAVYYCARQGGVAGTLYWYFDLWGRGTLVTVSS
VL: DIVMTQSPLSLPVTPGEPASISCRSSQGLLHSNGYNYLDWYLQKPGQSPQLLIYLGSNRASGVPDRFIGSGSGTDFTLKIRRVEAEDVGVYYCMQVLQTPWTFGQGTKVEIK
B4: 113F6C6 (antibody, V domains shown)
VH: QVQLVESGGGVVQPGRSLRLSCAASGLTFSSYGMHWVRQAPGKGLEWVAVIWYDGSNKYYADSVKGRFTISRDNSKNTLYLQMNSLRAEDTAVYYCAREEVLWFGELSYNYYYGMDVWGQGTTVTVSS
VL: DIQMTQSPSSLSASVGDRVTITCRASQGISNYLAWYQQKPGKVPKLLIYAASTLQSGVPSRFSGSGSGTDFTLTISSLQPEDVATYYCQKYNSVPLTFGGGTKVEIK
notes: also called 4-1BB fully human antibody 113F6C6; 113F6F6
B5: 118F3A2 (antibody, V domains shown)
VH: QVQLQQWGAGLLKPSETLSLTCGVYGGSFSTNYWSWIRQSPGKGLEWIGEINHSGNTEYNPSLKSRLTISIDTSKNQFSLKLTSVTAADTAVYYCARMGYHSPSFDFWGQGVLVTVSS
VL: KIVMTQSPATLSVSPGERATLPCRVSQGIGSNLAWYQQKPGQAPRLLIYGASTRATGVPARFSGSGSGSEFTLTISSLQSEDLALYYCQQYNNWPLTFGGGTKVEIK
B6: 57B3D10 (antibody, V domains shown)
VH: QVQLQESGPGLVKPSETLSLTCTVSGGSISSYYWSWIRQPPGKGLEWIGYIYYSGSTNYNPSLKSRVTISVDTSKSQFSLKLTSVTAADTAVYYCAKDSDYYGSGSYSYWYFDLWGRGTLVTVSS
VL: EIVMTQSPATLSVSPGERATLSCRASQSVSSNLAWYQQKPGQAPRLLIYGASTRAPGIPARFSGSGSGTEFTLTISSLQSEDFAVYYCQQYNNWPLTFGGGTKVEIK
notes: also called 4-1BB fully human antibody 57B3D10

Tests used:
[1] = biological target: T1, monkey 4-1BB-his protein (monkey); assay: ELISA, coated monkey 4-1BB-his; Ab 2 ug/ml
T1 construct: extracellular domain; Bought protein; also called extracellular domain of monkey-derived 4-1BB protein
Protocol: (§1) The purified immunogen A (4-1BB-hFc), monkey 4-1BB-his, and mouse 4-1BB-his obtained in Example 1 [for the preparation method, see step 1 of Example 1, preparation of immunogen A], of which the extracellular domain of monkey-derived 4-1BB protein (purchased from ACRO biosystems), the extracellular domain of mouse 4-1BB protein (purchased from sino biological) or other immune detection point proteins respectively were diluted with PBS to a final concentration of 1.0 μg/mL, then added with […] per well to 96-well ELISA plate. It was sealed with plastic film and incubated at 4° C. overnight. The next day, the plate was washed twice with the plate-washing solution [PBS containing 0.01% (v/v) Tween20] and blocking solution [PBS containing 0.01% (v/v) Tween 20 and 1% (v/v) BSA] was added and blocked at room temperature for 2 hours. The blocking solution was discarded and 100 μl of the purified 4-1BB antibody obtained in Example 2 was added per well. After incubated at 37° C. for 2 hours, the plate was washed 3 times with a plate-washing solution [PBS containing 0.01% (v/v) Tween20]. A secondary antibody (purchased from Sigma) labeled with HRP (horseradish peroxidase) was added, and after incubated at 37° C. for 2 hours, the plate was washed 3 times with a plate-washing solution [PBS containing 0.01% (v/v) Tween20]. 100 μl of TMB substrate was added per well. After incubated for 30 minutes at room temperature, 100 μl of stop buffer (1.0N HCl) was added per well. The A450 nm values were read using an ELISA plate reader (SpectraMax 384plus, Molecular Device).

[2] = biological target: T1, monkey 4-1BB-his protein; assay: ELISA, coated monkey 4-1BB-his; Ab 0.4 ug/ml
Protocol: as §1

[3] = biological target: T1, monkey 4-1BB-his protein; assay: ELISA, coated monkey 4-1BB-his; Ab 0.016 ug/ml
Protocol: as §1

[4] = biological target: T1, monkey 4-1BB-his protein; assay: ELISA, coated monkey 4-1BB-his; Ab 0.0001 ug/ml
Protocol: as §1

[5] = biological target: T1, monkey 4-1BB-his protein; assay: ELISA, coated monkey 4-1BB-his; Ab 0.0006 ug/ml
Protocol: as §1

[6] = biological target: T1, monkey 4-1BB-his protein; assay: ELISA, coated monkey 4-1BB-his; Ab 0.0032 ug/ml
Protocol: as §1

[7] = biological target: T1, monkey 4-1BB-his protein; assay: ELISA: monkey 4-1BB-his coated at 1.0 µg/mL, antibody titrated, HRP secondary antibody, OD450
Protocol: as §1

[8] = biological target: T2, mouse 4-1BB protein (extracellular domain) (mouse, UniProt P20334 24-187); assay: ELISA, coated mouse 4-1BB; Ab 10 ug/ml
T2 construct: extracellular domain; also called mouse 4-1BB-his; mouse 4-1BB-hFc protein
T2 sequence (looked up): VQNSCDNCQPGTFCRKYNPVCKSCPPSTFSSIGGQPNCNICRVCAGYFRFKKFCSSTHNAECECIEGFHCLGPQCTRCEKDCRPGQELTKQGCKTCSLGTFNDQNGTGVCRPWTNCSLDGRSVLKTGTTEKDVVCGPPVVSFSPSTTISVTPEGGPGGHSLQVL
Protocol: as §1

[9] = biological target: T2, mouse 4-1BB protein (extracellular …); assay: ELISA, coated mouse 4-1BB; Ab 0.4 ug/ml
Protocol: as §1

[10] = biological target: T2, mouse 4-1BB protein (extracellular …); assay: ELISA, coated mouse 4-1BB; Ab 0.08 ug/ml
Protocol: as §1

[11] = biological target: T2, mouse 4-1BB protein (extracellular …); assay: ELISA, coated mouse 4-1BB; Ab 0.016 ug/ml
Protocol: as §1

[12] = biological target: T2, mouse 4-1BB protein (extracellular …); assay: ELISA, coated mouse 4-1BB; Ab 0.0001 ug/ml
Protocol: as §1

[13] = biological target: T2, mouse 4-1BB protein (extracellular …); assay: ELISA, coated mouse 4-1BB; Ab 0.0032 ug/ml
Protocol: as §1

[14] = biological target: T2, mouse 4-1BB protein (extracellular …); assay: ELISA: mouse 4-1BB protein coated at 1.0 µg/mL (target by Table 10; the legend paragraph 119 says monkey 4-1BB-hFc), antibody titrated, HRP secondary antibody, OD450
Protocol: as §1

[15] = biological target: T3, monkey 4-1BB on CHOK1 cells (monkey); assay: FACS on CHOK1-c4-1BB cells, Alexa 488 secondary antibody, average fluorescence intensity
T3 construct: whole, on cells; also called CHOK1-c4-1BB
Description: The pIRES plasmid carrying the full-length gene of monkey-derived […] (the preparation method is the same as the preparation method of the pCpC vector carrying the human-derived IgG Fc fragment (hFc) in “Preparation of immunogen A” of the step (1) in Example 1, in which the database accession number of the amino acid sequence of the extracellular region of monkey 4-1BB protein (Phe19-Thr239) is G7PSE7) was transfected into CHOK1 cell line to obtain CHOK1 stable transfected cell line containing monkey 4-1BB (herein referred to as CHOK1-c4-1BB stable cell line). The CHOK1-h4-1BB stable cell line and the CHOK1-c4-1BB stable cell line were expanded and cultivated to 90% confluence in T-75 cell culture flasks. The medium was exhausted, and washed twice with HBSS buffer (Hanks Balanced Salt Solution, purchased from Invitrogen), and then the cells were treated and collected with enzyme-free cell dissociation solution (Versene solution, purchased from Life Technology). The cells were washed twice with HBSS buffer, and after cell counting, the cells were diluted with HBSS buffer to 2×10⁶ cells per ml, and 1% goat serum blocking solution was added, the percentage being the mass percentage. It was incubated on ice for 30 minutes, and then washed twice with HBSS buffer by centrifugation. The collected cells were suspended in FACS buffer (HBSS containing 1% BSA, the percentage was the mass percentage) to 2×10⁶ cells/mL, and 100 μl per well was added to a 96-well FACS reaction plate. The purified 4-1BB antibody test sample obtained in Example 2 was added, 100 microliters per well and incubated on ice for 2 hours. […] It was washed three times with FACS buffer by centrifugation, and 100 μl of fixative [4% (v/v) paraformaldehyde] per well was added to suspend cells, and washed twice with FACS buffer after 10 minutes by centrifugation. The cells were suspended with 100 microliters of FACS buffer, and the results were detected and analyzed with FACS (FACS Calibur, purchased from BD).

Row | Binder | OD450 nm [1] [OD450 nm] | OD450 nm [2] [OD450 nm] | OD450 nm [3] [OD450 nm] | OD450 nm [4] [OD450 nm] | OD450 nm [5] [OD450 nm] | OD450 nm [6] [OD450 nm] | EC50 (read off the curve) [7] [µg/mL] | OD450 nm [8] [OD450 nm] | OD450 nm [9] [OD450 nm] | OD450 nm [10] [OD450 nm] | OD450 nm [11] [OD450 nm] | OD450 nm [12] [OD450 nm] | OD450 nm [13] [OD450 nm] | binding result [14] | EC50 (read off the curve) [15] [µg/mL]
1 | B1 | 2.46 | 2.54 | 0.77 | 0.08 | 0.11 | 0.24 | ~0.03 |  |  |  |  |  |  |  | 
2 | B2 |  |  |  |  |  |  |  | 0.27 | 0.12 | 0.1 | 0.18 | 0.05 | 0.14 | no binding (tested: 10 µg/ml) | 
3 | B3 |  |  |  |  |  |  |  | 0.3 | 0.06 | 0.05 | 0.05 | 0.05 | 0.05 | no binding (tested: 10 µg/ml) | 
4 | B4 | 2.2 | 2.14 | 0.47 | 0.07 | 0.08 | 0.14 | ~0.05 | 0.25 | 0.08 | 0.05 | 0.05 | 0.05 | 0.05 | no binding (tested: 10 µg/ml) | ~0.1
5 | B5 |  |  |  |  |  |  |  | 0.31 | 0.06 | 0.12 | 0.09 | 0.05 | 0.11 | no binding (tested: 10 µg/ml) | 
6 | B6 | 2.47 | 2.44 | 0.81 | 0.08 | 0.1 | 0.25 | ~0.03 | 0.24 | 0.28 | 0.14 | 0.16 | 0.05 | 0.2 | no binding (tested: 10 µg/ml) | ~0.1
